B1: TCN-530 (5248_H10a) (antibody, V domains shown)
VH: QVQLVQSGAEVRKPGSSVKVSCKASGGPFMSYAIGWVRQAPGQGLEWMGGINPVFGRPHYAQKFQGRVTIATDDSTKTSYMELSSLTSEDTGMYYCASRYSRSSPGTFESWGQGTLVTVSS
VL: EIVMTQFPATLSVSPGERVTLSCRASQSVSNNLAWYQQKPGQPPRLLIYDASTRATGVPAKFSGTGSGTEFTLSISSLQSEDFAVYYCQQYHNWPPSYSFGLGTKLEIK
B2: TCN-535 (5246_P19) (antibody, V domains shown)
VH: QVQLVQSGSEVKKPGTSVKVSCTASGSVFTNYGISWVRQAPGQGLEWMGGIIPLFGAAKYAQKFQGRVTITADESTKTVYMELSRLTSKDTAIYFCAKAPRVYEYYFDQWGQGTPVTVSS
VL: EIVLTQSPGTLSLSPGERATLSCRASQSVSSSQLAWYQQKPGQAPRLIIYGASTRATGIPDRFSGSGSGTDFTLTIGRLEPEDFAVFFCQQYSTSPPTFGQGTKVDFK
B3: TCN-550 (5096_F06) (antibody, V domains shown)
VH: QVQLQESGPGLVKPSETLSLTCTVSGASINSHYWSWIRQPPGKGLEWIGYVYYSGSTTYNPSLKSRVTLSVDTSKNQFSLNLSSVTAADTAFYYCARHPYDVLTGSGDWFDPWGQGTLVTVSS
VL: SYVLTQAPSVSVAPGQTARITCGGNAIGSKKVHWYQHKAGQAPVLVVYDDTDRPSGIPERFSGSNSWSTATLTINRVEAGDEADYYCQVWDFTIDHVVFGGGTKLTVL

Legend:
Details in all cases: remark: other sources report otherwise
[1] = molecular target: recombinant homotrimeric HA A/northern shoveler/California/HKWF115/07 H6N4 (Influenza A virus A/northern shoveler/California/HKWF115/2007(H6N1)); assay: protein microarray, purified IgG, trimeric HA
[2] = molecular target: recombinant homotrimeric HA A/Hong Kong/1073/99 H9N2 (Influenza A virus A/Hong Kong/1073/99 (H9N2)); assay: protein microarray, purified IgG, trimeric HA
[3] = molecular target: recombinant homotrimeric HA A/Japan/305/57 H2N2 (Influenza A virus A/Japan/305/1957(H2N2)); assay: protein microarray, purified IgG, trimeric HA
[4] = molecular target: recombinant homotrimeric HA A/South Carolina/1/18 H1N1 (Influenza A virus A/South Carolina/1/18 (H1N1)); assay: protein microarray, purified IgG, trimeric HA
[5] = molecular target: recombinant homotrimeric HA A/Hong Kong/156/97 H5N1 (Influenza A virus A/Hong Kong/156/97 (H5N1)); assay: protein microarray, purified IgG, trimeric HA
[6] = molecular target: recombinant homotrimeric HA A/Solomon Islands/3/06 H1N1 (Influenza A virus A/Solomon Islands/3/2006(H1N1)); assay: protein microarray, purified IgG, trimeric HA
[7] = molecular target: recombinant homotrimeric HA A/Netherlands/219/03 H7N7 (Influenza A virus A/Netherlands/219/03(H7N7)); assay: protein microarray, purified IgG, trimeric HA
[8] = molecular target: recombinant homotrimeric HA A/Indonesia/5/05 H5N1 (Influenza A virus A/Indonesia/5/2005(H5N1)); assay: protein microarray, purified IgG, trimeric HA
[9] = molecular target: recombinant homotrimeric HA A/chicken/Vietnam/NCVD-016/08 H5N1 (Influenza A virus A/chicken/Vietnam/NCVD-016/2008(H5N1)); assay: protein microarray, purified IgG, trimeric HA
[10] = molecular target: recombinant homotrimeric HA A/Hong Kong/2108/03 H9N2 (Influenza A virus A/HK/2108/2003(H9N2)); assay: protein microarray, purified IgG, trimeric HA
[11] = molecular target: recombinant homotrimeric HA A/California/4/09 H1N1 (Influenza A virus A/California/04/2009(H1N1)); assay: protein microarray, purified IgG, trimeric HA
[12] = molecular target: recombinant homotrimeric HA A/Egypt/3300-NAMRU3/08 H5N1 (Influenza A virus A/Egypt/3300-NAMRU3/2008(H5N1)); assay: protein microarray, purified IgG, trimeric HA
[13] = molecular target: recombinant homotrimeric HA A/Vietnam/1203/04 H5N1 (Influenza A virus A/VietNam/1203/2004(H5N1)); assay: protein microarray, purified IgG, trimeric HA
[14] = molecular target: recombinant homotrimeric HA A/Wisconsin/67/05 H3N2 (Influenza A virus A/Wisconsin/67/2005(H3N2)); assay: protein microarray, purified IgG, trimeric HA
[15] = molecular target: recombinant soluble homotrimeric HA of A/Netherlands/219/03 (H7N7) (Influenza A virus A/Netherlands/219/03(H7N7)); assay: HA microarray, BCC supernatant
[16] = molecular target: recombinant soluble homotrimeric HA of A/California/4/09 (H1N1) (Influenza A virus A/California/04/2009(H1N1)); assay: HA microarray, BCC supernatant
[17] = molecular target: recombinant soluble homotrimeric HA of A/northern shoveler/California/HKWF115/07 (H6) (Influenza A virus A/northern shoveler/California/HKWF115/2007(H6N1)); assay: HA microarray, BCC supernatant
[18] = molecular target: recombinant soluble homotrimeric HA of A/Anhui/1/05 (H5N1) (Influenza A virus A/Anhui/1/2005(H5N1)); assay: HA microarray, BCC supernatant
[19] = molecular target: recombinant soluble homotrimeric HA of A/Solomon Islands/3/06 (H1N1) (Influenza A virus A/Solomon Islands/3/2006(H1N1)); assay: HA microarray, BCC supernatant
[20] = molecular target: recombinant soluble homotrimeric HA of A/Vietnam/1203/04 (H5N1) (Influenza A virus A/VietNam/1203/2004(H5N1)); assay: HA microarray, BCC supernatant
[21] = molecular target: recombinant soluble homotrimeric HA of A/Hong Kong/2108/03 (H9N2) (Influenza A virus A/HK/2108/2003(H9N2)); assay: HA microarray, BCC supernatant
[22] = molecular target: recombinant soluble homotrimeric HA of A/Wisconsin/67/05 (H3N2) (Influenza A virus A/Wisconsin/67/2005(H3N2)); assay: HA microarray, BCC supernatant
[23] = molecular target: recombinant soluble homotrimeric HA of A/Japan/305/57 (H2N2) (Influenza A virus A/Japan/305/1957(H2N2)); assay: HA microarray, BCC supernatant
[24] = molecular target: recombinant soluble homotrimeric HA of A/chicken/Vietnam/NCVD-016/08 (H5N1) (Influenza A virus A/chicken/Vietnam/NCVD-016/2008(H5N1)); assay: HA microarray, BCC supernatant
[25] = molecular target: recombinant soluble homotrimeric HA of A/swine/Ontario/01911-2/99 (H4N6) (Influenza A virus A/Swine/Ontario/01911-2/99 (H4N6)); assay: HA microarray, BCC supernatant
[26] = molecular target: recombinant soluble homotrimeric HA of A/Indonesia/5/05 (H5N1) (Influenza A virus A/Indonesia/5/2005(H5N1)); assay: HA microarray, BCC supernatant
[27] = molecular target: recombinant soluble homotrimeric HA of A/duck/Yangzhou/02/05 (H8N4) (Influenza A virus A/duck/Yangzhou/02/2005(H8N4)); assay: HA microarray, BCC supernatant
[28] = molecular target: recombinant homotrimeric HA A/Anhui/1/05 H5N1 (Influenza A virus A/Anhui/1/2005(H5N1)); assay: protein microarray, purified IgG, trimeric HA

Row | Binder | Trimeric HA Binding: RLU [1] | Trimeric HA Binding: RLU [2] | Trimeric HA Binding: RLU [3] | Trimeric HA Binding: RLU [4] | Trimeric HA Binding: RLU [5] | Trimeric HA Binding: RLU [6] | Trimeric HA Binding: RLU [7] | Trimeric HA Binding: RLU [9] | Trimeric HA Binding: RLU [11] | Trimeric HA Binding: RLU [12] | Trimeric HA Binding: RLU [13] | Trimeric HA Binding: RLU [14] | Trimeric HA Binding: RLU [15] | Trimeric HA Binding: RLU [16] | Trimeric HA Binding: RLU [17] | Trimeric HA Binding: RLU [18] | Trimeric HA Binding: RLU [19] | Trimeric HA Binding: RLU [20] | Trimeric HA Binding: RLU [21] | Trimeric HA Binding: RLU [22] | also measured
1 | B1 | 9010 RLU | 874 RLU | 9040 RLU | 7360 RLU | 14000 RLU | 8570 RLU | 402 RLU | 2050 RLU | 14200 RLU | 12300 RLU | 19100 RLU | 132 RLU | 2900 RLU | 46600 RLU | 45300 RLU | 11900 RLU | 32800 RLU | 7150 RLU | 486 RLU | 36800 RLU | Trimeric HA Binding: RLU [8]: 10900 RLU; Trimeric HA Binding: RLU [10]: 169 RLU; Trimeric HA Binding: RLU [23]: 47000 RLU; Trimeric HA Binding: RLU [24]: 48300 RLU; Trimeric HA Binding: RLU [25]: 2740 RLU; Trimeric HA Binding: RLU [26]: 39800 RLU; Trimeric HA Binding: RLU [27]: 41700 RLU
2 | B2 | 5880 RLU | 3470 RLU | 13000 RLU | 5660 RLU | 13200 RLU | 11300 RLU | 339 RLU | 2630 RLU | 17200 RLU | 18100 RLU | 20800 RLU | 148 RLU | 4760 RLU | 48600 RLU | 48200 RLU | 6880 RLU | 39400 RLU | 4740 RLU | 861 RLU | 34300 RLU | Trimeric HA Binding: RLU [28]: 6700 RLU; Trimeric HA Binding: RLU [8]: 17900 RLU; Trimeric HA Binding: RLU [23]: 26100 RLU; Trimeric HA Binding: RLU [24]: 50000 RLU; Trimeric HA Binding: RLU [25]: 5950 RLU; Trimeric HA Binding: RLU [26]: 45600 RLU; Trimeric HA Binding: RLU [27]: 36600 RLU
3 | B3 | 106 RLU | 413 RLU | 499 RLU | 104 RLU | 304 RLU | 752 RLU | 223 RLU | 295 RLU | 238 RLU | 3530 RLU | 829 RLU | 21300 RLU | 939 RLU | 454 RLU | 964 RLU | 1210 RLU | 204 RLU | 277 RLU | 2280 RLU | 26300 RLU | Trimeric HA Binding: RLU [28]: 4780 RLU; Trimeric HA Binding: RLU [10]: 150 RLU; Trimeric HA Binding: RLU [23]: 201 RLU; Trimeric HA Binding: RLU [24]: 361 RLU; Trimeric HA Binding: RLU [25]: 195 RLU; Trimeric HA Binding: RLU [26]: 9100 RLU; Trimeric HA Binding: RLU [27]: 407 RLU
